From the domain aggregation screens of Martell et al. (2025)

Assay: soluble fraction after stress (log2 fold change); higher = more stays soluble; pooled small domains, quantitative proteomics
Settings: stress: 50 degC
Summary of the method: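 Pooled custom libraries of small protein domains were measured in a high-throughput format, with quantitative proteomics as the read-out. Each library was stressed at 50°C. Aggregation propensity is given as the base-two logarithm of the fold change in how much of each protein stays soluble after the stress. Higher values mean a larger share of the protein remains in solution.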

Sequence	soluble fraction (log2)
HMEEIPYGVISAKAGAAAYDYIKKSIELGIEKKIDGVATAPIQKEAIHMAGISYIGHTEMYQGIT	0.0739
HMQITNEGQIKLVISEVLNENQEQKKQYLSGKEQVLGYLIGKVMQKTKGKANPKLVNDLMIKELS	0.257
HMHQAADFAGFITFNKDGVEQFSFGKYKNQTVVSVLEKDPGYYSWIQNADFPLYTKKILTAIRLAM	-0.577
HMKVIETKYNTYVVKSGDTLYSVAKKYGISVTELKEINDLSNNTLSIGQKLLVPATTIIIDE	-0.117
HMEDEEILNEIRHTEQYVYYFGNYIMEHHVSRGLSKEKVIASLARELQIEIADIREDFDGMIEQIKTNILN	-0.163
HMTYSAWIEKAYSELEKKGITEAELSDALDKRGINLEDLKLMGPDEAVKYQSEVEGVVLELSKSKE	-0.0868
HMTFPYTSLKDAPKNMKEIDGVPLTLDQVNQIAKVADSIGVSKEKNGYAIAKSQFKKSHHIENNRWVKNK	0.0239
HMSINISFEPADHLGKDVIFIRFPYDNEWIQRVRKLKGAKWSQSQRAWHVPDTEHYRTLFQLPQKI	-2.6
HMGPAVGAIRVEGNKRVEPETVRTYLTFNVGDPYDLAKVDESLKALFATGLFQDVRIRREGNTVVIVVVEN	-0.368
HMINKIANLSAELRMEGLPVSIRSTQAAVKIYMDLGGDDRNLLKTALMSIYVKDRYDIPKFNKVFEKLFA	-1.12
HMNESEALIARIENLPPIEDLTEKHAEEVKALMTVYSKLKMSDRILVTNYGVLKKDFDALVKKGFLTNED	0.0784
HMDVALEALDESDGAVRLQFSGALQTYLNDSTTAASLEAISKTFRAFYEAAGRPVDTLEVYAAGEPVT	0.06
HMRSLVDRSVQAVTDHIRENALRVGDSLPGEAYFATSLGVSRAVMREAFGALAALRVIDVGNGRKPRVGAI	-0.58
HMAKPVKSPLPGSVIKVAVKVGQQIKRGDLLLTLESMKMENSILAEKDGVVKNIHVQAGQSVMQDDLLLDI	0.0752
HMFGELTPDTAKRFLLTAREQEMASLIAQGLTNKEIAFRLGISEATVRTHIYNLFQKVGVQSRIELLNVLH	-0.289
HMQTPVTVGDTMPNLIGTPKRLLLELLNRTDITVKLTGDGYVTAQSPAAGTPIAKGMIIELSL	-0.296
HMGAGLKIGNDHEYANYLEYKVSVEKYAPGAILGEIKQKGIQFNTTISKTTFYRYITDGVFLTITNADLPV	0.223
HMTGNWRQMHKVKSKETIYGIAKEYGITVDELTKANPGMEAPGYTLKKGDYIFIPYATADANV	0.399
HMQYTQKTMYINDSYVNLRKSASTSSDIIMVVELNTKLTVIGEDGDWYKVKTSSGNAYVLKTLLSNEKKET	-0.108
HMSSGSLLTEREIEILAEMAKGLTNKAIGEKLFISVATVKTHILNIYRKLEVSSRVTAVNKAKQMRL	-1.93
HMKVEFDAMDKRILELMAKEYDTVLMARHLPLTPIVIDVRKKRIREVLNLPDATDAEIVIEAKEKDII	-0.322
HMLGYGEQEREAQKYLEMHTAFQADPSLQKMYLPENQYALISKVMEMTGIKNVKSYLTPPNEL	-0.0174
HMSKNYYEILGVTPDVELSQLKAVYRRLVRKYHPDINPDGELIFKDITEAYEVLSDEKQRKQYDMINGF	-0.0246

Sequence	soluble fraction (log2)
HMQISDTTELSTLITKVLSEQSDALVDFKNPKKQKQVIGYLTGQVLRASQGKANPGLVRSLLEEQLSALDS	0.124
HMTATKDLPFSTFITEVEKGNITSVDIKGNQIEGTFSNGAKFKTYSPNYPNLVERLADKGVAISAGPS	0.047
HMQLTVAVLIKNISKGQVISQGFLGFEARPERQIRGAYTNISEVLGRKAKSNIAVGTILKARHLDT	-2.94
HMEIEEIDYGTFLQMVEDGVVEKIELTDTQIFLTSTVDNDDKVYTTGVMPDQDLTNRLIEAGVVNFGKVV	-0.21
HMGISNEETFLLEKMSSGRRYSRKELDNLMGFEKTKTIRLLGSLINKGLVVAEGVNRARRYIR	-1.12
HMKYSYAELTKLQEQIAQDRNAPLTVPNALGIGLDERNNVIEITVNIADEAAAKAYYLQKYGDRISLKTTD	0.117
HMNQTEKSKITHNELLKAAHSLFIEQGFNHTTITDIVTRAGYSTGIFYKHYKTKTDILVELWTNYIE	-2.31
HMDDISLEEIKYISSKLETKVNEIEELLVRYYDGETNEAEEKELKEFFAQADVPAHLLAEKRLFMQLASQ	-0.0772
HMNLLQAHLLRLESAALLAEVREVDRQLSRWLHPLTPQSDVAIIDERNWEAAVARLTELGVHIEEGRW	-2.92
HMGNGALLTLTVKERQVIQLVAEGKSNKQIARDLNVTPETIKSHMKNIFAKLKVDNRAQAAVMVQQ	-0.638
HMQAMDYEGFKKEILKMSDIDLSLYKEKQMKRRIDSLIRKNGYEHYEDYVQALKQDSGLYNEFINYLTI	0.439
HMFEMPTSLVRTLSAIAIKQPVMQSEIIKLRGAGAYDHIKELIIRELVHRKEEGRSPILTTTKKFQEYFRL	-2.33
HMKISIPQEYFEIYNVLKQRPMHINEISKILKKPVSEISGTISLMEIEGYITKLTTDQYVLKKI	-0.143
HMSNENIDQDELQAIIQKVLASNQDAVAKYKAGKTAVIGFLIGQVMRQLNKKIDVALAKKTLLVFLEK	-0.396
HMSTQGRRIEILRHLTQTKKKADVNFVELGRTFGTSDTTIRKDLDWLIKNEYWENHGEWKPTQAGLNMI	0.0347
HMQPDPAFVAWVDANPWYKENRTLRALVHDYAEEVKRQEPALIGTAFLDRVKQLVQSEHPELFD	-0.0926
HMSTANISIEQAKEIALNHANLTSNQVIFSRTELDYDNGIQKYEVEFYYNNREYSYEINANTGDILGYEQ	-0.148
HMSVPNVVGRDQVEASSLLESAGFKVSVKQSYSDSVEQGKVISQSPSGSTTVSPGSTVTITVSQ	0.122
HMTVPMKILILEDEQRNAMRLIRLLNDIDTTFIIEGPLTNIKEAVDFFQSGKTTDLILADIRL	-0.147
HMSEIVEEQNTKLKQAVSKLSKRQQEVLYLKFEEGLDYEQISKIMDLKYQSVRNLVSTAIIKIKEH	-2.16
HMLETILQIGKDGVGENLVKQVNDALEARELIKGRVLDNNLELDARTAAQILAKATRSEVVQVIGTKFV	-0.0922
HMILKNVTSDLANKRLDKVASILFQTYSRTQIKKWILEGRVLVNGEISNPKDHVHENDEIEINPI	-1.04
HMAGWIPVEERLPDDLTNPITRDAYVYPVTVDLGDVTDIRYYSFWRGHWYNQGPETMDDLVIAWMLLPEPY	-0.0981

Sequence	soluble fraction (log2)
HMNFGEVLQTKRKSMGLTQEDLADKLFVSSETISNWETNKTTPDIDNVIRISQLFDISLNNLLL	-0.0758
HMRGFTDFEHIEKEYLATIEKLNWPDGVTLPDKLEGEDTGTSFQVGYGDTRASNLWEYSWMK	-0.0186
HMDIRVAHVDDDMSFGEAFAQARSQVGPGGVFEWHGKLYGTYTAEEWASMSPAERSQYQQAVFN	-0.0545
HMQRNLILKLDTDQPEIYKKLESIFVEINGLLVPFFIEKIIWSKQDSLNILFKNSSEALVEQLIGKNVFLP	0.0989
HMVYFDDEELDRFAGRAADSYTSDETDEFRDVMLTLLPADVMPWTQSIEMRGILLPEQLRDELLML	-0.764
HMEYLIENYGSVINQARMKKGMTQEQLSSKTGVSQAYIRSIESQNMKPTDAVARKIEFELGIKLFE	-0.0273
HMDIPGITAVKPQAAFYMFPKIDVKKFNIVNDEKFALDLLQDKKILIVQGSGFNWKQPDHFRVV	-0.103
HMDLEELSNKMNNVFESLSSDLRDIIIMSDIEGLSYEEISHKINIPIGTVRSRLHRARDLMVRVIKEN	-0.513
HMLDVNLIFSRPGFSLSAAFTLHAGGITVLRGDSGSGKTTLADLLSGAIAPQKGRILSDGDIWFDAASGIN	0.22
HMPKNRTDYVQDVLKSLGRPAHYKEITQIINAMLPKEAQYSAKSIQVVLGSSPLFIRVGTGTYALVE	-0.679
HMAPSVNEVAWAQKIIDAHAEAAAAGKGLVVVDGKLIENLHVEEAKQLLSLSDAIAKNDASNG	0.16
HMTASKSTVSTPEKVVYHIVFPKETKYSIAKKYGITIEELEKRNPEIIPSLSVGQKLVIKGTAPK	-0.00327
HMLLTASNYFKETKGINFSELPEALQKGHSFVIKSTENGTNWNAYSTSQNIQRVIDAYFSKLDEYLEKNQ	-0.611
HMIVLPGEELEVHIVQEGKEDGQGVAYLDDGTMVVVEGGRPYVDSFAYVAVTRVLQTGAGRIIFAHPTR	-0.832
HMTLREQISALIKQGKLTQAKLARETGVNGGALSAWINGKYTGNVETVEEPIKHWMALNERK	0.373
HMPGVTTQLHRLNGTEETYIIKRGDGVLEIDGEKSELQLGDAIIIPAGASQKISNIGDEDLE	-0.346
HMTIPNGTVVNGTVLEAREAGAYLVRVAGQTLTAQANLPLLVGQHFRAVWDSSGDIPVLRLSDAEQALLGK	0.119
HMKKYLNIYNIIVNKIESKEYQSNDKLPSEKELMDQYNVSRDTVRKSLNMLEQNGYIQKTKGKGSFVLDIN	-0.634
HMVQIVINKEVQTTSQTILRENAGTSSRNIGYVDPNVKLRATLDRNSFYFIPEKKGWIMKSRVKLIEDLS	-3.79
HMGHTVHAVPEAADRQRLDVFVGNLHPTISRAYIQKLSKEDQILVNGKPEKAGFKLRTGHSVSVPDMSE	0.0769
HMSVGDLLENLIRETRAQFSAPPESLGVAEKRRFVALLSQKGGFLLKGAVSRAASVLGVSEQTVYRYLKDS	-0.218
HMDRFRYYITEDSVQRGTYPYVDETTLKRFTSQLHKYEQGMISAYGYLEYSKPLTAEQIKDYTLMPSP	0.0317
HMDMPLIGTAIRGWGIISPAQQETLIKMSILTVEDLAAINDEGIKRIGMGGLDLKNKAKAWLLQLK	-0.751
